Measured values: article doi:10.1101/2019.12.12.874594

T1: 15.5K (His-15.5K) (human, UniProt P55769 1-128)
T1 sequence: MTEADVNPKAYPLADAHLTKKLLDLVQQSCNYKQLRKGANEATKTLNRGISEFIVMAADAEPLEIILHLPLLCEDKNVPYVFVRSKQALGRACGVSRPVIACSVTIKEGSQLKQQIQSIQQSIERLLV

B1: zebrafish U8-5 snoRNA, mature (structured_RNA)
RNA: GCAUCAGUGAGGUUUAUCCUUGCCUGUUGUCUUAGAAUUAAGACUUCAGCACAUGAUGAUUGGAUUCUAUGAAUACAUGAUUAUACUCUGUGUUCAUAUAGGGCUUGUCACCCAUUUAUGAAUCCUGUCUGAU
B2: zebrafish U8-2 snoRNA, mature (structured_RNA)
RNA: ACAUCAGUGAGGUUUGUCCUACCUGUUUUAGAAAUAAGACUUCAGCACAUGAUGAUUGGAUUCUAUGAAUAUGUGAUUAUAUUCUGUAUUCGUAUAGGGUUCACAACUCUGGAUCCUAUGUGAU
B3: zebrafish U8-4 snoRNA, mature (structured_RNA)
RNA: GUAUCAGUGAGGUUUAUCCUUACCUGUUGUCUUAGAAAUAAGACUGCAGUAUAUGAUGAUUGGAUUCUAUGAAUAUGUGACUAUGUUUGUACUGUAUUUGUACAUGACUUGCAACCUCUUUAUAAAUCCUAUCUGAU
B4: zebrafish U8-1 snoRNA, mature (structured_RNA)
RNA: GCAUCAGUGAGGUUUAUCCUUACCUGUUGUCUUAGAAAUAAGACUACAGCACAUGAUGAUUGGAUUCUAUGAAUGCGUGAUUAUAUUCUGUAUUCUUAAAGGGUUUGCAACACCUUUAUGAAUCCUGUCUGAU

Target: T1, 15.5K (His-15.5K)
Experiment: EMSA

Binding result, binds:
B1, B2, B3, B4
